These substances were tested on C.PvuII (assay: competition). Conditions: scale: % loss of shifted WT band at 10-fold excess competitor.

Substance | binding signal
Sym CAA/CAA 126-mer | 90
Sym CAA/CAT 126-mer | 90
Sym CAT/CAA 126-mer | 30
Sym CAT/CAT 126-mer | 30

— PMC2647307
